Data from patent US20050053592.

T1: endogenous Sav (Salvador), Q9VCR6
T1 chain: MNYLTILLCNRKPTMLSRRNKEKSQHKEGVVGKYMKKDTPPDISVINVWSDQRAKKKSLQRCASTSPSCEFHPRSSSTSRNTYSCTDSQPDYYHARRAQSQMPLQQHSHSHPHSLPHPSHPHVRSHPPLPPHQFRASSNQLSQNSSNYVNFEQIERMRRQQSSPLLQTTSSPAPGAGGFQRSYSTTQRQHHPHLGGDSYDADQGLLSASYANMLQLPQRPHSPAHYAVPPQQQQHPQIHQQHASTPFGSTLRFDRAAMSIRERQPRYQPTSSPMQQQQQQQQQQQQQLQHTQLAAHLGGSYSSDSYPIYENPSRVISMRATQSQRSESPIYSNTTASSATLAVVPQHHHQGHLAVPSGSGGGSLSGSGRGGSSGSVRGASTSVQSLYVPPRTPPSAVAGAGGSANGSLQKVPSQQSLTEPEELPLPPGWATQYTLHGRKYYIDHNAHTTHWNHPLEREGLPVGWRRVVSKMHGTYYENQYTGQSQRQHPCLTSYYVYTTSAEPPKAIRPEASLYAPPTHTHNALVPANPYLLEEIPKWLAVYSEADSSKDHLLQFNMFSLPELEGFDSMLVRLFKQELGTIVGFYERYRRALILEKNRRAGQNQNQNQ

T2: GST-Sav^362-607, Q9VCR6
T2 chain: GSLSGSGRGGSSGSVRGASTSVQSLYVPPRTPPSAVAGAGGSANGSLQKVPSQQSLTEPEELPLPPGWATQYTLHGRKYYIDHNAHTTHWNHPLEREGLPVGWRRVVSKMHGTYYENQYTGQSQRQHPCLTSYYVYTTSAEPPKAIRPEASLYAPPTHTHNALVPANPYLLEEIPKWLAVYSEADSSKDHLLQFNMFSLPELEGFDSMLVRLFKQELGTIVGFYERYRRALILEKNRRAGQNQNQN

T3: GST-Wts^68-414, Q9VA38
T3 chain: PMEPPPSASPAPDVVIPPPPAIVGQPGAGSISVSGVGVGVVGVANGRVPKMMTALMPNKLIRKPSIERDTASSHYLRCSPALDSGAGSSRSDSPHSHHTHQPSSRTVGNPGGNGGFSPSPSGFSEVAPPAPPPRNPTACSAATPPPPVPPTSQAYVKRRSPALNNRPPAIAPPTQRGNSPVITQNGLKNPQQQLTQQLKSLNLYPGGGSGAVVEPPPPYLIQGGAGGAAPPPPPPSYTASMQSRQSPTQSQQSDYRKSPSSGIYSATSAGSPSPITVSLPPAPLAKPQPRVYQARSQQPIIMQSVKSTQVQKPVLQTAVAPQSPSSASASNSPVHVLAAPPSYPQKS

B1: kinase dead Hpo^K71R mutant (UAS-hpo^K71R) (protein)
chain: MSEPEVTSVVDMKSPNISSSCSFFKLKKLSEESLLQPPEKVFDIMYKLGEGSYGSVYKAVHKESSSIVAIRLVPVESDLHEIIKEISIMQQCDSPYVVRYYGSYFKQYDLWICMEYCGAGSVSDIMRLRKKTLTEDEIATILSDTLQGLVYLHLRRKIHRDIKAANILLNTEGYAKLADFGVAGQLTDTMAKRNTVIGTPFWMAPEVIEEIGYDCVADIWSLGITALEMAEGKPPYGEIHPMRAIFMIPQKPPPSFREPDRWSTEFIDFVSKCLVKEPDDRATATELLEHEFIRNAKHRSILKPMLEETCAIREQQRANRSFGGVLAASQAKSLATQENGMQQHITDNAFMEDPGTLVPEKFGEYQQSSASDATMIAHAEQGVDEGTLGPGGLRNLSKAAAPAAASSAASPLDMPAVDSGTMVELESNLGTMVINSDSDDSTTAKNNDDQKPRNRYRPQFLEHFDRKNAGDGRGDEKPIATEYSPAAAEQQQQQQQQQQQQQQDEQHLASGANDLNNWEHNMEMQFQQISAINQYGLQQHQQQQQVLMAYPLMNEQLIALNNQPNLLLSNAAPMGQQGIPAAAPAQPPPAYQNQHMHTQSHAYVEGEFEFLKFLTFDDLNQRLCNIDHEMELEIEQLNKKYNAKRQPIVDAMNAKRKRQQNINNNLIKI
B2: Myc-tagged Hpo (protein)
chain: MEQKLISEEDLNESEPEVTSVVDMKSPNISSSCSFFKLKKLSEESLLQPPEKVFDIMYKLGEGSYGSVYKAVHKESSSIVAIKLVPVESDLHEIIKEISIMQQCDSPYVVRYYGSYFKQYDLWICMEYCGAGSVSDIMRLRKKTLTEDEIATILSDTLQGLVYLHLRRKIHRDIKAANILLNTEGYAKLADFGVAGQLTDTMAKRNTVIGTPFWMAPEVIEEIGYDCVADIWSLGITALEMAEGKPPYGEIHPMRAIFMIPQKPPPSFREPDRWSTEFIDFVSKCLVKEPDDRATATELLEHEFIRNAKHRSILKPMLEETCAIREQQRANRSFGGVLAASQAKSLATQENGMQQHITDNAFMEDPGTLVPEKFGEYQQSSASDATMIAHAEQGVDEGTLGPGGLRNLSKAAAPAAASSAASPLDMPAVDSGTMVELESNLGTMVINSDSDDSTTAKNNDDQKPRNRYRPQFLEHFDRKNAGDGRGDEKPIATEYSPAAAEQQQQQQQQQQQQQQDEQHLASGANDLNNWEHNMEMQFQQISAINQYGLQQHQQQQQVLMAYPLMNEQLIALNNQPNLLLSNAAPMGQQGIPAAAPAQPPPAYQNQHMHTQSHAYVEGEFEFLKFLTFDDLNQRLCNIDHEMELEIEQLNKKYNAKRQPIVDAMNAKRKRQQNINNNLIKI

What was measured:
[1] = target: T1, endogenous Sav (Salvador), Q9VCR6
[2] = target: GST-Tsc1 (control GST fusion protein)
[3] = target: T2, GST-Sav^362-607, Q9VCR6
[4] = target: T3, GST-Wts^68-414, Q9VA38

Protein	increase in wing size (MS1096 Gal4 driver) [1]	in vitro kinase assay (32P phosphorylation of the GST substrate) [2]	in vitro kinase assay (32P phosphorylation of the GST substrate) [3]	in vitro kinase assay (32P phosphorylation of the GST substrate) [4]
B1	expression of the kinase dead Hpo^K71R mutant results in 35% increase in wing size	–	–	–
B2	–	no signals were detected using a control substrate	myc-tagged Hpo protein specifically phosphorylated a GST fusion protein containing the Hpo-binding region of Sav	a GST fusion protein containing this region of Wts was phosphorylated by Hpo
